Measurements taken from paper PMC5605508.

Legend:
[1] = target: SSBΔC8 (Escherichia coli) (UniProt P0AGE0); assay: EMSA; conditions: Buffer 1: 25 mM Tris-HCl, 10 mM Mg acetate, 3 mM K glutamate, pH 7.5, room temperature (TPM: 2 uM RecA, 2 mM ATP, 1 mM DTT, 1 mg/mL BSA); buffer 2: 10 mM Tris …
wtSSB (Escherichia coli) [2] = target: wtSSB (Escherichia coli) (UniProt P0AGE0); assay: EMSA; conditions: Buffer 1: 25 mM Tris-HCl, 10 mM Mg acetate, 3 mM K glutamate, pH 7.5, room temperature (TPM: 2 uM RecA, 2 mM ATP, 1 mM DTT, 1 mg/mL BSA); buffer 2: 10 mM Tris …
[3] = target: SSBΔC8 (Escherichia coli) (UniProt P0AGE0); assay: SPR; conditions: 10 mM Mg acetate, 3 mM K glutamate, pH 7.5, room temperature (TPM: 2 uM RecA, 2 mM ATP, 1 mM DTT, 1 mg/mL BSA)
wtSSB (Escherichia coli) [4] = target: wtSSB (Escherichia coli) (UniProt P0AGE0); assay: SPR; conditions: 10 mM Mg acetate, 3 mM K glutamate, pH 7.5, room temperature (TPM: 2 uM RecA, 2 mM ATP, 1 mM DTT, 1 mg/mL BSA)
[5] = buffer 1, 0.005% Tween-20, Buffer 1: 25 mM Tris-HCl, buffer 2: 10 mM Tris …
[6] = buffer 2 (10 mM Tris, 0.1 mM Na3EDTA, pH 8.1), 0.005% Tween-20, Buffer 1: 25 mM Tris-HCl

Substance | Kd [1] | Kd (wtSSB (Escherichia coli) [2]) | Kd [3, 5] | Kd [3, 6] | Kd (wtSSB (Escherichia coli) [4]; [5]) | Kd (wtSSB (Escherichia coli) [4]; [6])
55 nt ssDNA overhang (EMSA) | 13.9 nM | 4.04 nM |  |  |  | 
55 nt ssDNA overhang (SPR) |  |  | 4.7 nM | 89.1 nM | 24 nM | 145 nM
